Earlier results, collected in PMC8714859.

Legend:
[1] = biological target: interleukin-34 (Homo sapiens) (UniProt Q6ZMJ4)
[2] = biological target: M-CSF (Homo sapiens) (UniProt P09603)
Sequence of UniProt P09603 (P09603 33-190): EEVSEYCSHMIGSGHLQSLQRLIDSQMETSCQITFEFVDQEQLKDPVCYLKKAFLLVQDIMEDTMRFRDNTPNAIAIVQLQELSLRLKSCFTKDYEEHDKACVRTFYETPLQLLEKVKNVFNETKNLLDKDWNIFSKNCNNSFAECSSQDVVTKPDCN

Sequence of UniProt Q6ZMJ4 (Q6ZMJ4 21-242): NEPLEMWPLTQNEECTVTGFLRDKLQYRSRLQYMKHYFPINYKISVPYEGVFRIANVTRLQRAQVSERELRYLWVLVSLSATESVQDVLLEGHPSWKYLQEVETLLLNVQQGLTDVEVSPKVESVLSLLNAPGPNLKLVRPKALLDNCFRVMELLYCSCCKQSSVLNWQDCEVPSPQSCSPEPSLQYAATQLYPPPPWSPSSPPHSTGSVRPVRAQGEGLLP

Substance: M-CSF receptor (from UniProt P07333)
- Kd [1]: 0.001 nM
- Kd [2]: 0.034 nM
